Results on 56 variants are retold here after the RNAGym collection of RNA variant scans (doi:10.7554/elife.90254).

First the molecules themselves.
B1: LINE1-mini (parent)
chain: GGCAGAGCUCAACACAGCGUGGCAAAGUGGCUGUGGCUAGACUGCC

Variants of B1 are the subject of the data set. Briefly: self-cleavage, relative activity (ratio to wild type); higher = more cleavage; in vitro, sequencing; the parent is a self-cleaving ribozyme.
For GGCAGAGCUCAACACAGCGUGGCAAAGUGGCUUUGGCUAGACUGCC [G33U], the self-cleavage stood at 0.11.

With GGCAGAGCUCAACACAGCGUGGCAAAGUGGCUCUGGCUAGACUGCC [G33C], the self-cleavage turned out to be 0.07.

Take GGCAGAGCUCAACACAGCGUGGCAAAGUGGCUAUGGCUAGACUGCG [G33A C46G]: the self-cleavage worked out at 0.08.

As for GGCAGAGCUCAACACAGCGUGGCAAAGUGGCUAUGGCUAGACUGCU [G33A C46U], the self-cleavage worked out at 0.12.

Consider GGCAGAGCUCAACACAGCGUGGCAAAGUGGCUAUGGCUACACUGCC [G33A G40C], for which the self-cleavage worked out at 0.09.

Turning to GGCAGAGCUCAACACAGCGUGGCAAAGUGGCUAUGGCUAUACUGCC [G33A G40U], the self-cleavage is 0.09.

GGCAGAGCUCAACACAGCGUGGCAAAGUGGCUAUGGCUAAACUGCC [G33A G40A]: the self-cleavage worked out at 0.07.

Turning to GGCAGAGCUCAACACAGCGUGGCAAAGUGGCUUUGGCUAGACCGCC [G33U U43C], the self-cleavage was determined as 0.08.

GGCAGAGCUCAACACAGCGUGGCAAAGUGGCUUUGGCUAGACGGCC [G33U U43G]: the self-cleavage was determined as 0.02.

As to GGCAGAGCUCAACACAGCGUGGCAAAGUGGCUUUGGCUAGACAGCC [G33U U43A], the self-cleavage is 0.12.

Take GGCAGAGCUCAACACAGCGUGGCAAAGUGGCUCUGGCUAGUCUGCC [G33C A41U]: the self-cleavage stood at 0.08.

GGCAGAGCUCAACACAGCGUGGCAAAGUGGCUCUGGCUAGGCUGCC [G33C A41G]: the self-cleavage stood at 0.04.

As for GGCAGAGCUCAACACAGCGUGGCAAAGUGGCUCUGGCUAGCCUGCC [G33C A41C], the self-cleavage came out at 0.05.

For GGCAGAGCUCAACACAGCGUGGCAAAGUGGCUAUGGCUAGACUUCC [G33A G44U], the self-cleavage is 0.03.

GGCAGAGCUCAACACAGCGUGGCAAAGUGGCUAUGGCUAGACUCCC [G33A G44C]: the self-cleavage came out at 0.07.

As for GGCAGAGCUCAACACAGCGUGGCAAAGUGGCUAUGGCUAGACUACC [G33A G44A], the self-cleavage came out at 0.1.

For GGCAGAGCUCAACACAGCGUGGCAAAGUGGCUUGGGCUAGACUGCC [G33U U34G], the self-cleavage came to 0.05.

For the variant GGCAGAGCUCAACACAGCGUGGCAAAGUGGCUUAGGCUAGACUGCC [G33U U34A], the self-cleavage is 0.08.

In the case of GGCAGAGCUCAACACAGCGUGGCAAAGUGGCUUCGGCUAGACUGCC [G33U U34C], the self-cleavage turned out to be 0.23.

Regarding GGCAGAGCUCAACACAGCGUGGCAAAGUGGCUGAGGCUAGACUGCC [U34A], the self-cleavage is 0.1.

On to GGCAGAGCUCAACACAGCGUGGCAAAGUGGCUCUGCCUAGACUGCC [G33C G36C], for which the self-cleavage was determined as 0.04.

Take GGCAGAGCUCAACACAGCGUGGCAAAGUGGCUCUGACUAGACUGCC [G33C G36A]: the self-cleavage is 0.03.

On to GGCAGAGCUCAACACAGCGUGGCAAAGUGGCUCUGUCUAGACUGCC [G33C G36U], for which the self-cleavage is 0.06.

Consider GGCAGAGCUCAACACAGCGUGGCAAAGUGGCUCUGGCUAAACUGCC [G33C G40A], for which the self-cleavage amounted to 0.05.

With GGCAGAGCUCAACACAGCGUGGCAAAGUGGCUCUGGCUACACUGCC [G33C G40C], the self-cleavage was determined as 0.07.

As to GGCAGAGCUCAACACAGCGUGGCAAAGUGGCUCUGGCUAUACUGCC [G33C G40U], the self-cleavage came out at 0.06.

Turning to GGCAGAGCUCAACACAGCGUGGCAAAGUGGCUAUAGCUAGACUGCC [G33A G35A], the self-cleavage came out at 0.07.

Regarding GGCAGAGCUCAACACAGCGUGGCAAAGUGGCUAUCGCUAGACUGCC [G33A G35C], the self-cleavage came out at 0.05.

In the case of GGCAGAGCUCAACACAGCGUGGCAAAGUGGCUAUUGCUAGACUGCC [G33A G35U], the self-cleavage amounted to 0.1.

As for GGCAGAGCUCAACACAGCGUGGCAAAGUGGCUCUGGCUAGACUGCG [G33C C46G], the self-cleavage is 0.05.

With GGCAGAGCUCAACACAGCGUGGCAAAGUGGCUCUGGCUAGACUGCU [G33C C46U], the self-cleavage stood at 0.05.

Regarding GGCAGAGCUCAACACAGCGUGGCAAAGUGGCUCUGGCUAGACUGCA [G33C C46A], the self-cleavage was 0.03.

For the variant GGCAGAGCUCAACACAGCGUGGCAAAGUGGCUCUGGCUAGACUGUC [G33C C45U], the self-cleavage stood at 0.05.

Regarding GGCAGAGCUCAACACAGCGUGGCAAAGUGGCUCUGGCUAGACUGAC [G33C C45A], the self-cleavage was 0.04.

In the case of GGCAGAGCUCAACACAGCGUGGCAAAGUGGCUCUGGCUAGACUGGC [G33C C45G], the self-cleavage amounted to 0.06.

For the variant GGCAGAGCUCAACACAGCGUGGCAAAGUGGCUAAGGCUAGACUGCC [G33A U34A], the self-cleavage is 0.09.

As to GGCAGAGCUCAACACAGCGUGGCAAAGUGGCUAGGGCUAGACUGCC [G33A U34G], the self-cleavage came out at 0.04.

Take GGCAGAGCUCAACACAGCGUGGCAAAGUGGCUACGGCUAGACUGCC [G33A U34C]: the self-cleavage was found to be 0.09.

On to GGCAGAGCUCAACACAGCGUGGCAAAGUGGCUGAGGCUAGUCUGCC [U34A A41U], for which the self-cleavage worked out at 0.05.

On to GGCAGAGCUCAACACAGCGUGGCAAAGUGGCUGAGGCUAGGCUGCC [U34A A41G], for which the self-cleavage was 0.05.

As for GGCAGAGCUCAACACAGCGUGGCAAAGUGGCUGAGGCUAGCCUGCC [U34A A41C], the self-cleavage was determined as 0.03.

GGCAGAGCUCAACACAGCGUGGCAAAGUGGCUGAGGCUGGACUGCC [U34A A39G]: the self-cleavage was 0.05.

On to GGCAGAGCUCAACACAGCGUGGCAAAGUGGCUGAGGCUUGACUGCC [U34A A39U], for which the self-cleavage is 0.06.

In the case of GGCAGAGCUCAACACAGCGUGGCAAAGUGGCUGAGGCUCGACUGCC [U34A A39C], the self-cleavage came to 0.12.

For the variant GGCAGAGCUCAACACAGCGUGGCAAAGUGGCUCUGGCUAGAGUGCC [G33C C42G], the self-cleavage was 0.05.

For the variant GGCAGAGCUCAACACAGCGUGGCAAAGUGGCUCUGGCUAGAAUGCC [G33C C42A], the self-cleavage was determined as 0.06.

With GGCAGAGCUCAACACAGCGUGGCAAAGUGGCUCUGGCUAGAUUGCC [G33C C42U], the self-cleavage was determined as 0.06.

GGCAGAGCUCAACACAGCGUGGCAAAGUGGCUUUGGCUAGGCUGCC [G33U A41G]: the self-cleavage worked out at 0.07.

As to GGCAGAGCUCAACACAGCGUGGCAAAGUGGCUUUGGCUAGUCUGCC [G33U A41U], the self-cleavage is 0.09.

On to GGCAGAGCUCAACACAGCGUGGCAAAGUGGCUUUGGCUAGCCUGCC [G33U A41C], for which the self-cleavage worked out at 0.06.

For GGCAGAGCUCAACACAGCGUGGCAAAGUGGCUUUGGCUAGAGUGCC [G33U C42G], the self-cleavage is 0.07.

For GGCAGAGCUCAACACAGCGUGGCAAAGUGGCUUUGGCUAGAUUGCC [G33U C42U], the self-cleavage was 0.09.

Turning to GGCAGAGCUCAACACAGCGUGGCAAAGUGGCUUUGGCUAGAAUGCC [G33U C42A], the self-cleavage was 0.13.

As to GGCAGAGCUCAACACAGCGUGGCAAAGUGGCUUUGGUUAGACUGCC [G33U C37U], the self-cleavage is 0.06.

As to GGCAGAGCUCAACACAGCGUGGCAAAGUGGCUUUGGGUAGACUGCC [G33U C37G], the self-cleavage was determined as 0.05.

GGCAGAGCUCAACACAGCGUGGCAAAGUGGCUUUGGAUAGACUGCC [G33U C37A]: the self-cleavage turned out to be 0.07.
